Target: endogenous knock-in V5-Halo-RXRα (human (endogenous in U2OS)) (UniProt P19793)
Sequence of UniProt P19793 (P19793 whole entry): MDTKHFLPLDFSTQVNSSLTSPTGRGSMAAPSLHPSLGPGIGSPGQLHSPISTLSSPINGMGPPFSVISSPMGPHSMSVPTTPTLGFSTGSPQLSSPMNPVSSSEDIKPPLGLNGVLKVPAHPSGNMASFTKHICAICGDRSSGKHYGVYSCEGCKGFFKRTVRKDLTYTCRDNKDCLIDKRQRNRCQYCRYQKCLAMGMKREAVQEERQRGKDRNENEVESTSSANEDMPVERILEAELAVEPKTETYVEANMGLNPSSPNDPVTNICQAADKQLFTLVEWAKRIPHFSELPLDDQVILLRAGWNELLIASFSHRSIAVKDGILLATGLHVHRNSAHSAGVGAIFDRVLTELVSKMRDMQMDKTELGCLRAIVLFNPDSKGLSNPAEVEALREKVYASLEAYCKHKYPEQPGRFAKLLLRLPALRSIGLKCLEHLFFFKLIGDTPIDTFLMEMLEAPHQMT

chromatin-bound fraction of DR trajectories (f bound,DR) of RARα^RR-SNAP in Halo-RXRα knock-in U2OS cells: 7.5% | chromatin-bound fraction of PAPA trajectories (f bound,PAPA) of RARα^RR-SNAP in Halo-RXRα knock-in U2OS cells: 11.1%
Substance: RARα^RR-SNAPf-3xFLAG (from UniProt P10276 1-462) (natural protein)

— paper PMC11723585
